In patent US9205136B2, “Human aminoacyl-tRNA synthetase polypeptides useful for the regulation of angiogenesis” (THE SCRIPPS RESEARCH INSTITUTE, priority 2000, dated 2015):
“Also recorded” adds a separate entry of the source.

How the values were obtained:
PMNs = test: 125I-human mini TyrRS binding and competition assay on PMNs; settings: 10 nM 125I-mini TyrRS, 200-fold molar excess of unlabeled ligand, on ice 2 hours
Method in brief: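 Human PMNs (2×10^6) in RPMI-1640 with 20 mM Hepes pH 7.4 and 10 mg/ml BSA were incubated with radioiodinated mini TyrRS. Bound and free label were separated by centrifugation through a 10% sucrose/PBS cushion, and cell-associated radioactivity was counted by scintillation.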

type A IL-8 receptor = biological target: T1, type A IL-8 receptor (Homo sapiens, UniProt P25024); test: Binding to RBL2H3 cells transfected with IL-8 receptor type A; settings: read-out: Kd on cells expressing the type A IL-8 receptor; transfected RBL2H3 rat basophilic leukemia cells
T1 construct: expressed in transfected cells; host or cells: RBL2H3 rat basophilic leukemia cells
T1 sequence (P25024 1-350): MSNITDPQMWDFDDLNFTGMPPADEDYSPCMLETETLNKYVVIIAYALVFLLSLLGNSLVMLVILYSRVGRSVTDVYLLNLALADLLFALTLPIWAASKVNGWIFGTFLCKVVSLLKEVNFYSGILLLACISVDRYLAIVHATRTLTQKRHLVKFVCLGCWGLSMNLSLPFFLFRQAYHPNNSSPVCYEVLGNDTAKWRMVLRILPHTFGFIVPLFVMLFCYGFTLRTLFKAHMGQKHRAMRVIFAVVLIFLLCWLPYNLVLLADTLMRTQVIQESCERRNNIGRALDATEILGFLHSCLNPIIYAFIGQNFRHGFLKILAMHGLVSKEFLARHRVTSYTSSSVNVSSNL
Description: Following incubation, cells were separated from unbound radioactivity as described herein.
Untransfected RBL2H3 cells express neither the type A nor type B receptors.

[1] = system: chick chorioallantoic membrane (CAM); test: In vivo angiogenesis assay in chick chorioallantoic membrane (CAM); settings: 250 ng TyrRS molecule or 25 ng VEGF165 on filter disk, 72 hours
Description: In vivo angiogenesis assays were conducted in chick chorioallantoic membrane (CAM) (Nicolaou et al., 1998, Bioorg. Med. Chem. 6:1185-208). Ten-day-old chick embryos were purchased from Mcintyre Poultry (Lakeside, Calif.) and were incubated at 37° C. and 70% humidity. A small hole was made with a small crafts drill (Dremel, Emerson Electric, Racine, Wis.) directly over the air sac at the end of the egg. The embryos were candled to determine a location to drill a second hole directly over embryonic blood vessels. […] A window was cut in the eggshell over the dropped CAM, exposing the CAM to direct access for experimental manipulation. Cortisone acetate-treated 5 mm filter disks were soaked with a particular protein sample (25 ng of VEGF165 or 250 ng of a given TyrRS molecule) and the filter disks added directly to the CAMs, which were relatively devoid of preexisting blood vessels. The windows were sealed with sterile tape and incubated at 37° C. […] After 72 hours, the CAM tissue associated with the filter disk was harvested and quantified using a stereomicroscope. Angiogenesis was assessed as the number of visible blood vessel branch points within the defined area of the filter disks. Each determination shown in FIG. 17 represents the mean from 5-8 embryos.

Kd (type A IL-8 receptor): 8 nM
B1: mini TyrRS: truncated TyrRS, residues 1-364 of full-length TyrRS, amino-terminal catalytic domain (protein)
chain: MGDAPSPEEKLHLITRNLQEVLGEEKLKEILKERELKIYWGTATTGKPHVAYFVPMSKIADFLKAGCEVTILFADLHAYLDNMKAPWELLELRVSYYENVIKAMLESIGVPLEKLKFIKGTDYQLSKEYTLDVYRLSSVVTQHDSKKAGAEVVKQVEHPLLSGLLYPGLQALDEEYLKVDAQFGGIDQRKIFTFAEKYLPALGYSKRVHLMNPMVPGLTGSKMSSSEEESKIDLLDRKEDVKKKLKKAFCEPGNVENNGVLSFIKHVLFPLKSEFVILRDEKWGGNKTYTAYVDLEKDFAAEVVHPGDLKNSVEVALNKLLDPIREKFNTPALKKLASAAYPDPSKQKPMAKGPAKNSEPEEVILEHHHHHH
modifications: His6 tag; Human mini TyrRS in pET20B
notes: truncated TyrRS, residues 1-364 of full-length TyrRS, amino-terminal catalytic domain
inhibition of 125I-mini TyrRS binding to PMNs by unlabeled ligand (PMNs): inhibited the binding; also recorded: inhibited by the presence of excess amounts of unlabeled mini TyrRS | in vivo angiogenesis in chick CAM (blood vessel branch points) [1]: induced angiogenesis
